From patent US20210054055A1 (UNIVERSITY OF VERMONT AND STATE AGRICULTURAL COLLEGE, published 2021)
Like-named read-outs stand apart in the source and are kept apart here.

T1: MR766
T1 envelope protein E: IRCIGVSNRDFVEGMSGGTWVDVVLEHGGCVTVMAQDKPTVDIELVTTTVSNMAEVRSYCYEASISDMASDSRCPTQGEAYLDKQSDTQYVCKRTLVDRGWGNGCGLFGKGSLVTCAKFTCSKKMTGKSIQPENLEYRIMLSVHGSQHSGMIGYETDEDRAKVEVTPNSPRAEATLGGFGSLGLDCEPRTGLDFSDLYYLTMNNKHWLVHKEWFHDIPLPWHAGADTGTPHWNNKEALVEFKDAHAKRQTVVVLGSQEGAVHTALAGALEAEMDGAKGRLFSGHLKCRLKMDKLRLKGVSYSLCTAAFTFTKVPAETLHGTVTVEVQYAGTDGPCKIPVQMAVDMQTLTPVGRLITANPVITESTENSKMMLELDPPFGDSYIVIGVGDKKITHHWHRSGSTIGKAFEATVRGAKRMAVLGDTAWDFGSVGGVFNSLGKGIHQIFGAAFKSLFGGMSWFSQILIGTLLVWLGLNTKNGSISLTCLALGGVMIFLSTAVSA

B1: Anti-ZIKV clone DT168(A)-D1_A-9E (A9E) (antibody, V domains shown)
VH: EVQLLESGGGLVQAGGSLRLSCAASGFTFDTYAMSWVRQPPGKGLEWVSAISTGGGSKYYADSVKGRLTISRDNSQNTLYLQMSSLRADDTAVYYCARSDFWRSGRYYYYMDVWGRGTTVTVSS
VL: QSALTQPASVSASPGQSITISCTGTHFDIVDYDYLSWYQQHPGNAPKLLIYGVSNRPSGVSSRFSGSKSGNTASLTISGLQAEDEGDYYCSSYSISSTLLVFGGGTKLSV
notes: also called ZV1; A9E mAb
B2: Anti-ZIKV clone DT168(A)-D1_G-9E (G9E) (antibody, V domains shown)
VH: EVQLVESGGGVVQPGRSLRLSCVASGFAFSNYHMHWVRQAPGKGLEWVAIIWDDGSDQYYADSVKGRFTISRDNSKNTLFLQMNRLRAEDTALYYCVGGSSAYNGDNGWREAASLDDWGQGTLVTVSS
VL: QSALTQPASVSGSPGQSITIFCSGSSNDVGGYNYVSWYQQYPGKVPKLLIYDVNSRPSGVSNRFSGSKSGNTASLTISGLQAEDEADYYCSSYTSRRTWVFGGGTIVTVL
notes: also called ZV2; G9E mAb

What was measured:
[1] = molecular target: T2, Zika virus (ZIKV) virions, envelope protein E (Zika virus, UniProt A0A024B7W1 291-794)
[2] = molecular target: ZVEDIII, recombinant ZIKV E domain III (Zika virus, UniProt A0A024B7W1 586-693); experiment: direct antigen coating ELISA
[3] = molecular target: T2, Zika virus (ZIKV) virions, envelope …; remark: listed apart in the source
[4] = molecular target: T2, Zika virus (ZIKV) virions, envelope …; remark: listed apart in the source
[5] = molecular target: T2, Zika virus (ZIKV) virions, envelope …; remark: listed apart in the source
[6] = molecular target: T1, MR766; experiment: cell-based or functional assay
[7] = molecular target: H/PF/2013 (Zika virus); experiment: cell-based or functional assay
[8] = molecular target: Dakar (Zika virus); experiment: cell-based or functional assay
[9] = molecular target: T3, Dengue virus serotype 1 (DENV1) virions, envelope protein E (Dengue virus 1, UniProt P17763 281-775); experiment: antigen capture ELISA
T3 construct: domain: envelope protein E

[10] = molecular target: T4, ZVEDI, recombinant ZIKV E domain I (Zika virus, UniProt A0A024B7W1 291-585); experiment: direct antigen coating ELISA, 50 ng recombinant antigen per well; target ZVEDI (domain I)
[11] = molecular target: ZIKV/2015/Paraiba, envelope protein E (Zika virus strain ZIKV/2015/Paraiba); experiment: cell-based or functional assay
[12] = molecular target: T2, Zika virus (ZIKV) virions, envelope …; remark: listed apart in the source
[13] = molecular target: T5, ZIKV recombinant E (ZIKV E80), recombinantly expressed monomeric ectodomain of ZIKV E protein (Zika virus, UniProt A0A024B7W1 291-694); experiment: direct antigen coating ELISA, 50 ng recombinant antigen per well; target ZIKV E80
[14] = molecular target: T4, ZVEDI, recombinant ZIKV E domain I; experiment: direct antigen coating ELISA
[15] = molecular target: T5, ZIKV recombinant E (ZIKV E80), …
[16] = molecular target: T5, ZIKV recombinant E (ZIKV E80), …; remark: listed apart in the source
[17] = molecular target: T5, ZIKV recombinant E (ZIKV E80), …; remark: listed apart in the source

T3 sequence (P17763 281-775 limits assumed): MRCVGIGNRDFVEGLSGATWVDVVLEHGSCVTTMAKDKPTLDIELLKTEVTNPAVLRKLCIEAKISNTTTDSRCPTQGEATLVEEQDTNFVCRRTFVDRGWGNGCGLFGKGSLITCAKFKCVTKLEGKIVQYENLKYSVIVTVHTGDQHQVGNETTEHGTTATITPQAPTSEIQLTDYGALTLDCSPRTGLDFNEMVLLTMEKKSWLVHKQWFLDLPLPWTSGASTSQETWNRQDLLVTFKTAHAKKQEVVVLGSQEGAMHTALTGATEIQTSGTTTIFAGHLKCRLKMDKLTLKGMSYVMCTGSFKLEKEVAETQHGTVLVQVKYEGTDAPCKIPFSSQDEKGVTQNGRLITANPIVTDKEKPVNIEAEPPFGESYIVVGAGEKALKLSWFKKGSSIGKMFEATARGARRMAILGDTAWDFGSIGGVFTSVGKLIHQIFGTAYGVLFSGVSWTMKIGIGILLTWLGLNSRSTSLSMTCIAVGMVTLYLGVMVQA
Sequence of ZVEDIII, recombinant ZIKV E domain III (A0A024B7W1 586-693 limits assumed): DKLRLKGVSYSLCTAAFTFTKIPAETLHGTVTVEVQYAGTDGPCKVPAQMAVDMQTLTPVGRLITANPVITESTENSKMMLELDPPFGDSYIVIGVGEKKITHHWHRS

Row | Binder | EC50 (read off the curve) [1] [µg/mL] | binding result [2] | IC50 (read off the curve) [3] [µg/mL] | IC50 (read off the curve) [4] [µg/mL] | EC50 (read off the curve) [5] [µg/mL] | FRNT50 (focus reduction neutralization on Vero cells) [6] [ng/mL] | FRNT50 (focus reduction neutralization on Vero cells) [7] [ng/mL] | FRNT50 (focus reduction neutralization on Vero cells) [8] [ng/mL] | binding result [9] | EC50 [10] [µg/mL] | EC50, Vero-based neutralization assay against ZIKA/2015/Paraiba [11] [µg/mL] | IC50 (read off the curve) [12] [µg/mL] | EC50 [13] [µg/mL] | binding result [14] | EC50 (read off the curve) [15] [µg/mL] | EC50 (read off the curve) [16] [µg/mL] | EC50 (read off the curve) [17] [µg/mL]
1 | B1 | ~0.02 | no binding | ~0.06 | ~0.008 | ~0.02 | 5.3 | 4.7 | 21.7 | no binding | 2.5 | 0.005 to 0.01 | ~0.07 | 0.04 | – | – | – | –
2 | B2 | ~0.03 | no binding | ~0.05 | ~0.4 | ~0.03 | 2.3 | 4.7 | 14.6 | no binding | – | – | ~0.05 | – | no binding | ~0.2 | ~0.3 | ~0.2
